# Measurements published in the nanobody polyreactivity screen of Harvey et al. (2022).
# Experiment: yeast display, Sf9 membrane polyspecificity reagent, FACS + sequencing; frameworks hold sequencing errors
# In short: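 Galactose-induced (36–48 hours) yeast carrying a synthetic nanobody display library were exposed to 10% biotinylated, detergent-solubilized Sf9 membrane reagent at 4 °C for 1 hour. FACS followed streptavidin microbead enrichment, using low and high (top ~1%) gates for expression (anti-HA) and reagent binding (streptavidin). Colony PCR, MiSeq 2 × 250 sequencing and CDR-length filtering followed. Labels for polyreactivity reflect the gate of origin.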
row,Sequence,polyreactivity (PSR sort gate)
1,QVQLVESGGGLVQAGGSLRLSCAASGSTLYNYAMGWYRQAPGKERELVAAITKSGGRTYYADSVKGRFTISRDNAKNTVYLQMNSLKAEDTAVYYCAADRTQYARFDSWGQGTQVTVSS,high polyreactivity
2,QVQLVESGGGLVQAGGSLRLSCAASGSTLYPNPMGWYRQAPGTERELVAAISGTGGGTYYADSVKGRFTISRDNAKNTVYLQMNSLKPEDTAVYYCAADYVFAWWGDYYWGQGTQVTVSS,high polyreactivity
3,QVQLVESGGGLVQAGGSLRLSCAASGSTLYRNGMGWYRQAPGKEMEFVAAISWSGASTYYADSVKGRFTISRDNAKNTVYLQMNSLKPEDTAVYYCNARGPTVYETHNYWGQGTQVTVSS,low polyreactivity
4,QVQLVESGGGLVQAGGSLRLSCAASGSTLYVNAMGWYRQAPGKERELVAAISWSGGSTNYADSVKGRFTISRDNAKNTVYLQMNSLKPEDTAVYYCNVDSVVWDNAWYLYDYWGQGTQVTVSS,low polyreactivity
5,QVQLVESGGGLVQAGGSLRLSCAASGSTLYWNAMGWYRQAPGKERELVAGISIGGRTNYADSVKGRFTISRDNAKNTVYLQMNSLKPEDTAVYYCNAENTYLGSRYRPYNYWGQGTQVTVSS,low polyreactivity
6,QVQLVESGGGLVQAGGSLRLSCAASGSTLYWYAMGWYRQAPGKERELVAAITSGGNTYYADSVKGRFTISRDNAKNTVYLQMNSLKPEDTAVSYCAVGSFGVSAYSYYYWGQGTQVTVSS,low polyreactivity
7,QVQLVESGGGLVQAGGSLRLSCAASGSTLYYYAMGWYRQAPGKERELVAAISSGGRTYYADSVKGRFTISRDNAKNTVYLQMNSLKPEDTAVYYCNAVRYQKIFDYWGQGTQVTVSS,high polyreactivity
8,QVQLVESGGGLVQAGGSLRLSCAASGSTLYYYAMGWYRQAPGKERELVATITNGGSTNYADSVKGRFTISRDNAKNTVYLQMNSLKPEDTAVYYCNARRGYWGSHYWGQGTQVTVSS,high polyreactivity
9,QVQLVESGGGLVQAGGSLRLSCAASGSTLYYYVMGWYRQAPGKERELVAAISSSGDSTYYADSVKGRFTISRDNAKNTVYLQMTSLKPEDTAVYYCNAGWYFYGETTDDYWGQGTQVTVSS,low polyreactivity
10,QVQLVESGGGLVQAGGSLRLSCAASGSTMAPYAMGWYRQAPGTERELVASINWGGTTTYYADSVKGRFTISRDNAKNTVYLQMNSLKPEDTAVYYCAALGLRWGRSGYYYEYYYWGQGTQVTVSS,high polyreactivity
11,QVQLVESGGGLVQAGGSLRLSCAASGSTPDGYGMGWYRQAPGKERELVAVITIGGGRTYYADSVKGRFTISRDNAKNTVYLQMNSLKAVDTAVYYCAAKGWRRYYIGDYWGQGTQVTVSS,high polyreactivity
12,QVQLVESGGGLVQAGGSLRLSCAASGSTQVYYDMGWYRQAPAKERELVATITGTDSTYYADSVKGRFTISRDNAKNTVYLQMNSLKPEDTADCAADRAASRPDYDYWGEGTQVTVSS,low polyreactivity
13,QVQLVESGGGLVQAGGSLRLSCAASGSTRRYVMAWYRQAPGKEMELVAAISYSGGSTYYADSVKGRFTISRDNAKNTVYLQMNSLKPEETAVYYCAADGYSGQYGGHMGYWGQGTQVTVSS,high polyreactivity
14,QVQLVESGGGLVQAGGSLRLSCAASGSTRRYVMGWYRQAPWKERELVAAISYSGGSTYYADSVKGRFTISRDNAKNTVYLQMNSLKPEDTAVYYCAADGYSGQYGGHMGYWGQGTQVTVSS,high polyreactivity
15,QVQLVESGGGLVQAGGSLRLSCAASGSTSAAYAMGWYRQAPGKERELVAAISKRGGSTYYADSVKGRFTISRDNAKNTVYLQMNSLKPEDTAVYYCNKYHFPGYWSRFDYWGQGTQVTVSS,high polyreactivity
16,QVQLVESGGGLVQAGGSLRLSCAASGSTSARYAMGWYRQAPGKERELVATITRSGTTKYADSVKGRFTISRDNAKNTVYLQMNSLKPEDTAVYYCNSDTYFPLYDYWGQGTQVTVSS,low polyreactivity
17,QVQLVESGGGLVQAGGSLRLSCAASGSTSAYYAMGWYRQAPGKERELVAAISWSGGLTYYADSVKGRFTISRDNAKNTVYLQMNSLKPEDTAVYYCAASSYPYGYDYWGQGTQVTVSS,high polyreactivity
18,QVQLVESGGGLVQAGGSLRLSCAASGSTSDSYAMGWYRQAPGKERELVAAISRGTNTYYADSVKGRFTISRDNAKNTVYLQLNRLKPEDTAVYYCNKVQYLRKYWVTPTGQRFGYWGQGTQVTVSS,high polyreactivity
19,QVQLVESGGGLVQAGGSLRLSCAASGSTSDVYAMGWYRQAPGKEREFVAAIRFSGGSTYYADSVKGRFTISRDNAKNTVYLQMNSLKPEDTAVYYCAKRWGIWPRGYYWGQGTQVTVSS,low polyreactivity
20,QVQLVESGGGLVQAGGSLRLSCAASGSTSETYAMGWYRQAPGKERELVAAISGNGASTYYADSVKGRFTISRDNAKNTVYLQMNSLKPDDTAVYYCAAYFYYWGSTFVRYEYWGQGTQVTVSS,high polyreactivity
21,QVQLVESGGGLVQAGGSLRLSCAASGSTSGKNAMGWYRQAPGKERELVAVITYSGSRTYYADSVKGRFTISRDNAKNTVYLQMNSLIPEDTAVYYCAAVGGGVSFRGNYWGQGTQVTVSS,high polyreactivity

row,Sequence,polyreactivity (PSR sort gate)
1,QVQLVESGGGLVQAGGSLRLSCAASGSTSGKYAMGWYRQAPGKERELVAGITKGGGGTYYADSVKGRFTISRDNAKNTVYLQMNSLKPEDTAVYYCAAGTLYSLYFGRHGYWGQGTQVTVSS,low polyreactivity
2,QVQLVESGGGLVQAGGSLRLSCAASGSTSGLYAMGWYRQAPGKERELVATISLSGGSTYYADSVKGRFTISRDNAKNTVYLQMNSLKPEDTAVYYCNTDKYKWNYGSTYRMDYWGQGTQVTVSS,low polyreactivity
3,QVQLVESGGGLVQAGGSLRLSCAASGSTSGSNAMGWYRQAPGKERELVAGISYSTADTNYADSVKGRFTISRDNAKNTVYLQMNSLKPEDTAVYYCATDPFGIASRHDDYWGQGTQVTVSS,low polyreactivity
4,QVQLVESGGGLVQAGGSLRLSCAASGSTSGSYGMGWYRQAPGKERELVAAIRISGDSTYYADSVKGRFTISRDNAKNTVYLQMNSLKPEDTAVYYCAAEAFFWYYGWYDYWGQGTQVTVSS,high polyreactivity
5,QVQLVESGGGLVQAGGSLRLSCAASGSTSHQYAMGSYRQAPGKERELVAAISSRAGSTYYADSVKGRFTISRDNAKNTVYLQMNSLKPEDTAVYYCAAEADSWKWGYDYWGQGTQVTVSS,low polyreactivity
6,QVQLVESGGGLVQAGGSLRLSCAASGSTSIYYTMGWYRQAPGKERELVAAITRGGRTYYADSVKGRFTISRDNAKNTVYLQMNSLKPEDTAVYYCAATTYLVWGYNYWGQGTQVTVSS,low polyreactivity
7,QVQLVESGGGLVQAGGSLRLSCAASGSTSKVYAMGWSRQAPGKERELVAAITFSGGSTYADSVKGRFTISRDNAKNTVYLQMNSLKPEDTAVYYCAVEVPYSWWWLVDYWGQGTLVTVSS,high polyreactivity
8,QVQLVESGGGLVQAGGSLRLSCAASGSTSLYYAMGWYRPAPGKEREFVAAITWSGGSTYYADSVKGRFTISRDNAKNTVYLQMNSLKPEDTAVYYCAARSYGYSAGYYWGQGTQVTVSS,high polyreactivity
9,QVQLVESGGGLVQAGGSLRLSCAASGSTSPGYAMGWYRQAPWKERELVAAITFRGTRTYYADSVKGRFTISRDNSKNTVYLQMNSLKPEDTEVYYCNVVGYGPNRGRVDYWGQGTLVTVSS,high polyreactivity
10,QVQLVESGGGLVQAGGSLRLSCAASGSTSQPYDMGWYRQAPGTERELVASITNGGSTNYADSVKGRFTISRDNAKNTVYLQMNSLNPEDTAVDYCATRNGYSGTYGYWGQGTQVTVSS,low polyreactivity
11,QVQLVESGGGLVQAGGSLRLSCAASGSTSQVNDMGWYRQAPGKERELVAAISSTGDRTYYADSVKGRFTISRDNAKNTVYLQMNSLKPEDTAVYYCNADLTSYYEEDERNDDDYWGQGTQVTVSS,low polyreactivity
12,QVQLVESGGGLVQAGGSLRLSCAASGSTSRIYGMGWYRQAPGTDRELVAAITRSGNTYADSVKGRFTISRDNANNTDYLQMNSLKPDDTAVYYCATAWRFTYFGYEYWGQGTQVTVSS,high polyreactivity
13,QVQLVESGGGLVQAGGSLRLSCAASGSTSRSAMGWYRQAPGKERELVASITRGGSTYYADSVKGRFTISRDNAKNTVYLQMNSLKPEDTAVYYCAARFPQHNYWAMDYWGQGTQVTVSS,high polyreactivity
14,QVQLVESGGGLVQAGGSLRLSCAASGSTSSYNAMGWYRQAPGKERELVAAINSGDNTYYADSVKGRFTISRDNAKNTVYLQMNSLKPDDTAVYYCNKVTRNFNYDYWGQGTQVTVSS,low polyreactivity
15,QVQLVESGGGLVQAGGSLRLSCAASGSTSVDYTMGWYRQAPGKERELVAAIDYNGDSTYYADSVKGRFTISRDNAKNTVYLQMNSLKPEDTAVYYCAADYLSFVVVKLYGYWGQGTQVTVSS,low polyreactivity
16,QVQLVESGGGLVQAGGSLRLSCAASGSTSVVNPMGWSRPAPGTERELVAAISWSGGSTYYADSVKGRFTISRDNAKNTVYLQMNSLKPEDTAVYYCAKRRVYYGSRYNYWGQGTQVTVSS,high polyreactivity
17,QVQLVESGGGLVQAGGSLRLSCAASGSTSVYAMGWYRQAPGKERELVAAITRGGSTYYADSVKGRFTISRDNAKNTVYLQMNRLKPEDTAVYYCAVETYYSIFDIYDYWGQGTQVTVSS,low polyreactivity
18,QVQLVESGGGLVQAGGSLRLSCAASGSTSWIYAMGWYRQAPGKERELVAAISGRDGSTNYADSVKGRFTISRDNAKNTVYLQMNSLKPEDTAVYYCNATGRRFNRYGGDYWGQGTQVTVSS,high polyreactivity
19,QVQLVESGGGLVQAGGSLRLSCAASGSTSWIYAMGWYRQAPGQERELVAAISGRDGSTNYADSVKGRFTISRDNAKNTVYLQMNSLKPEDTAVYYCASYLYKSRYLPEYDYWGQGTQVTVSS,high polyreactivity
20,QVQLVESGGGLVQAGGSLRLSCAASGSTSYDYAMGWYRQAPGKERELVAAISRRGGSTYYADSVKGRFTISRDNAKNTVYLQMNSLKPEDTAVYYCAARSYSYLGWFSYDYWGQGTQVTVSS,low polyreactivity
